Where no end group is shown, it is not given here.
Target: T1, AtsB, anaerobic sulfatase maturating enzyme from Klebsiella pneumoniae, wild type, reconstituted (Klebsiella pneumoniae, UniProt Q9X758 1-395)
T1 sequence (looked up): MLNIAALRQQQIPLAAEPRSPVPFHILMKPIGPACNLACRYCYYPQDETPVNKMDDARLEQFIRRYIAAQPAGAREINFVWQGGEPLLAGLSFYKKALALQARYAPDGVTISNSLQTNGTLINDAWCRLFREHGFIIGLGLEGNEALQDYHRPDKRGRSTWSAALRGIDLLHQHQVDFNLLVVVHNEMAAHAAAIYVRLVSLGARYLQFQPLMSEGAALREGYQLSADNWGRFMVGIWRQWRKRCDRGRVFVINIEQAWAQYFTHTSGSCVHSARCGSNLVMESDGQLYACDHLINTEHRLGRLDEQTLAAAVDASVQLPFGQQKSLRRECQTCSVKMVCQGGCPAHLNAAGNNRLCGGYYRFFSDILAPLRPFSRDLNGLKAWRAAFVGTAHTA
Assay: SEC

**Q.** Does Ac-YYTSPMSAPARSMLLTGN [Kp18Ser peptide substrate] bind?
**A.** Result: binds

— PMC3897223 (Biochemistry, 2013)
